# Patent US20150299285A1 (INDIANA UNIVERSITY RESEARCH AND TECHNOLOGY, published 2015)
# “And” between values parts separate entries of the source, which are not always exact repeats. Equal entries are not always repeated. Bridges are numbered along the chain shown (N, C = ends). Roman numbers before positions name the chains, in order. Where no end group is shown, it is not given here. [ ]: non-standard residue; d: D form. Phe(4-NH2) = Nc1ccc(C[C@H](N)C(=O)O)cc1
# B1: IGF1(Y^B16L^B17)(p-NH2-F)^A19amide (ligand)
# chain 1: GIVDECCFRSCDLRRLEM[Phe(4-NH2)]CA
# chain 2: GPETLCGAELVDALYLVCGDRGFYFNKPT
# modifications: disulfide I:6-I:11, I:20-II:18, I:7-II:6; not fully specified (C-terminus); also: amide in name, site not given here
# notes: also called IGF1 A:B(Y^B16L^B17)(p-NH2-F)^A19amide; IGF1 (Y^B16L^B17) A(p-NH2-F)^19
# B2: IGF-1 A:B(E10Y16L17) (ligand)
# chain 1: GIVDECCFRSCDLRRLEMYCA
# chain 2: GPETLCGAELVDALYLVCGDRGFYFNKPT
# modifications: disulfide I:6-I:11, I:20-II:18, I:7-II:6; not fully specified (C-terminus)
# B3: IGF-1 A:IGF-1 B(1-8)-In (9-17)-IGF-1 B(18-30) (ligand)
# chain 1: GIVDECCFRSCDLRRLEMYCA-NH2
# chain 2: GPETLCGSHLVEALYLVCGDRGFYFNKPT-NH2
# modifications: disulfide I:6-I:11, I:20-II:18, I:7-II:6
# B4: IGF-1 A:B (H5D10Y16L17) DPI (ligand)
# chain 1: GIVDECCFRSCDLRRLEMYCA-NH2
# chain 2: GPEHLCGADLVDALYLVCGDRGFY-NH2
# modifications: disulfide I:6-I:11, I:20-II:18, I:7-II:6
# B5: IGF-1 A (H8 A9 N21):B(H5D10Y16L17 A22) DPI A-COOH (ligand)
# chain 1: GIVDECCHASCDLRRLEMYCN
# chain 2: GPEHLCGADLVDALYLVCGDAGFY
# B6: IGF-1 A (H8 A9 N21):B(H5D10Y16L17) DPI A-COOH (ligand)
# chain 1: GIVDECCHASCDLRRLEMYCN-OH
# chain 2: GPEHLCGADLVDALYLVCGDRGFY-NH2
# modifications: disulfide I:6-I:11, I:20-II:18, I:7-II:6
# B7: IGF-1 A:B (E10Y16L17) DPI (ligand)
# chain 1: GIVDECCFRSCDLRRLEMYCA-NH2
# chain 2: GPETLCGAELVDALYLVCGDRGFY-NH2
# modifications: disulfide I:6-I:11, I:20-II:18, I:7-II:6
# B8: IGF-1 A:B(D10Y16L17) DPI A-COOH (ligand)
# chain 1: GIVDECCFRSCDLRRLEMYCA-OH
# chain 2: GPETLCGADLVDALYLVCGDRGFY-NH2
# modifications: disulfide I:6-I:11, I:20-II:18, I:7-II:6
# B9: IGF-1 A:In (1-17)-IGF-1 B (18-30) (ligand)
# chain 1: GIVDECCFRSCDLRRLEMYCA-NH2
# chain 2: FVNQHLCGSHLVEALYLVCGDRGFYFNKPT-NH2
# modifications: disulfide I:6-I:11, I:20-II:19, I:7-II:7
# B10: IGF-1 A:In B(1-5)-IGF-1 B(YL)(6-30) (ligand)
# chain 1: GIVDECCFRSCDLRRLEMYCA
# chain 2: FVNQHLCGAELVDALYLVCGDRGFYFNKPT
# modifications: not fully specified (bridges); cysteine pairing not given here; also: C-terminal amide, chain not given here
# B11: IGF-1 A:B(E10 Y16L17)-E31E32 B-COOH (ligand)
# chain 1: GIVDECCFRSCDLRRLEMYCA-NH2
# chain 2: GPETLCGAELVDALYLVCGDRGFYFNKPTEE-OH
# modifications: disulfide I:6-I:11, I:20-II:18, I:7-II:6
# B12: IGF1(Y^B16L^B17) (ligand)
# chain 1: GIVDECCFRSCDLRRLEMYCA
# chain 2: GPETLCGAELVDALYLVCGDRGFYFNKPT
# notes: Two chain heteroduplex; may be the same molecule as m22; also called IGF1 (Y^B16L^B17) analog; IGF1 A:B(Y^B16L^B17)
# B13: MIU-35: B^1(H5, H10, Y16, L17)25-C^1-A^1 (H8, N18, N21) (ligand)
# chain: GPEHLCGAHLVDALYLVCGDRGFYGYGSSSRRAPQTGIVDECCHRSCDLRRLENYCN
# B14: MIU-57: B1-PEG20K B^1(H5,Y16,L17)25-C^1-A^1(N18,21) (ligand)
# chain: {PEG 20 kDa}-GPEHLCGAELVDALYLVCGDRGFYGYGSSSRRAPQTGIVDECCFRSCDLRRLENYCN
# modifications: disulfide 18-56, 42-47, 6-43
# B15: MIU-58: B1-PEG20K-B1- Dimer (ligand)
# chain: {PEG 20 kDa}-GPEHLCGAELVDALYLVCGDRGFYGYGSSSRRAPQTGIVDECCFRSCDLRRLENYCN
# modifications: disulfide 18-56, 42-47, 6-43; also: dimer: two chains linked head to head via 20 kDa PEG
# B16: MIU-67: B0, C8-PEG10K di-PEGylated B^1(H5,Y16,L17)25-C^1(K8)-A^1(N18,21) (ligand)
# chain: {PEG 10 kDa}-GPEHLCGAELVDALYLVCGDRGFYGYGSSSRK(PEG 10 kDa)APQTGIVDECCFRSCDLRRLENYCN
# modifications: disulfide 18-56, 42-47, 6-43
# B17: MIU-68: B0, B22-PEG10K di-PEGylated B^1(H5,Y16,L17, K22)25-C^1(K8)-A^1(N18,21) (ligand)
# chain: {PEG 10 kDa}-GPEHLCGAELVDALYLVCGDK(PEG 10 kDa)GFYGYGSSSRKAPQTGIVDECCFRSCDLRRLENYCN
# modifications: disulfide 18-56, 42-47, 6-43
# B18: MIU-69: B0, A14-PEG10K di-PEGylated B^1(H5,Y16,L17)25-C^1(K8)-A^1(K14, N18,21) (ligand)
# chain: {PEG 10 kDa}-GPEHLCGAELVDALYLVCGDRGFYGYGSSSRKAPQTGIVDECCFRSCDLK(PEG 10 kDa)RLENYCN
# modifications: disulfide 18-56, 42-47, 6-43
# B19: IGF1(Y^B16L^B17)(AlaPro)^A-1,0 (ligand)
# chain 1: APGIVDECCFRSCDLRRLEMYCA
# chain 2: GPETLCGAELVDALYLVCGDRGFYFNKPT
# B20: IGF-1 A:B (H5D10Y16L17) (S=O)DPI (ligand)
# chain 1: GIVDECCFRSCDLRRLEMYCA-NH2
# chain 2: GPEHLCGADLVDALYLVCGDRGFY-NH2
# modifications: disulfide I:6-I:11, I:20-II:18, I:7-II:6; also: (S=O), residue not given here
# notes: the only Met stands at A18
# B21: IGF-2 AB(YL) (ligand)
# chain 1: not shown
# chain 2: AYRPSETLCGGELVDTLYLVCGDRGFYFSRPA
# modifications: C-terminal amide
# B22: IGF-1 A:B (ligand)
# chain 1: GIVDECCFRSCDLRRLEMYCA-NH2
# chain 2: GPETLCGAELVDALQFVCGDRGFYFNKPT-NH2
# modifications: disulfide I:6-I:11, I:20-II:18, I:7-II:6
# notes: also called IGF-1 A and B chain heteroduplex
# B23: DP20: GE5K-B chain-CTP(K)-A Chain (ligand)
# chain: GEEEEEKGPEHLCGAHLVDALYLVCGDRGFYSSSSRAPPPSLPSPSRLPGPSDTPILPQKGIVDECCHRSCDLRRLENYCN
# B24: DP20 Lys C (two chain form of DP20) (ligand)
# chain 1: GPEHLCGAHLVDALYLVCGDRGFYSSSSRAPPPSLPSPSRLPGPSDTPILPQK
# chain 2: GIVDECCHRSCDLRRLENYCN
# B25: DP22: CTP-E5R-B chain-CTP(K)-A Chain (ligand)
# chain: MGSSSSKAPPPSLPSPSRLPGPSDTPILPQEEEEERGPEHLCGAHLVDALYLVCGDRGFYSSSSRAPPPSLPSPSRLPGPSDTPILPQKGIVDECCHRSCDLRRLENYCN
# B26: DP22LysC (ligand)
# chain 1: APPPSLPSPSRLPGPSDTPILPQEEEEERGPEHLCGAHLVDALYLVCGDRGFYSSSSRAPPPSLPSPSRLPGPSDTPILPQK
# chain 2: GIVDECCHRSCDLRRLENYCN
# Target: T1, human insulin receptor (human, UniProt P06213 28-1382)
# T1 construct: whole, on cells
# Test: competition with 125I-insulin, receptor membranes, SPA
row,Binder,IC50 [nM]
1,B1,1.08

# Target: T2, human IGF-1 receptor (human, UniProt P08069 31-1367)
# T2 construct: whole, on cells; also called IGF-IR; IGR-1R
# Test: competition with 125I-IGF-1, receptor membranes, SPA
Binder,IC50,% IGF-1 (in test) [%],% native IGF-1 activity (0.55 nM) [%]
B2,7.85 nM and 12.2 nM,,
B3,131 nM,0.3,0.4
B4,4.66 nM,11.2,11.8
B5,22.8 nM,2.3,2.4
B6,4.03 nM,12.9,13.6
B7,22.9 nM,3.3,2.4
B8,6.79 nM,7.7,8.1
B9,62.5 nM,0.9,0.9
B10,27.5 nM,3.6,2
B11,17.5 nM,3,3.1

# Target: T1, human insulin receptor
# Test: competition with 125I-insulin, receptor membranes, SPA
# Remark: another data set of the same source
row,Binder,IC50 [nM]
1,B12,0.51

# Target: T2, human IGF-1 receptor
# Test: cell-based or functional assay
row,Binder,% Insulin Activity (in vitro; assay not stated) [%]
1,B13,3.2
2,B14,1.2
3,B15,2.6
4,B16,< 0.1
5,B17,< 0.1
6,B18,< 0.1

# Target: T2, human IGF-1 receptor
# Test: cell-based or functional assay
# Remark: another data set of the same source
row,Binder,"% IGF, total phosphorylation [%]"
1,B2,13
2,B4,7.1
3,B5,7.7
4,B6,181
5,B8,112

# Target: T1, human insulin receptor
# Test: cell-based or functional assay
row,Binder,"% Insulin, total phosphorylation [%]"
1,B2,49.2
2,B8,1580

# Target: T1, human insulin receptor
# Test: competition with 125I-insulin, receptor membranes, SPA
# Remark: another data set of the same source
row,Binder,IC50 [nM]
1,B19,1.93

# Target: T1, human insulin receptor
# Test: as above
# Remark: another data set of the same source
Binder,IC50,% insulin (in test) [%],% native insulin activity (0.6 nM) [%]
B2,0.66 nM and 0.51 nM,,
B3,1.59 nM,19.1,37.7
B4,0.16 nM,479,
B5,0.12 nM,,
B6,0.05 nM and 0.09 nM,,
B8,0.2 nM and 0.42 nM and 0.26 nM,,
B20,0.25 nM,316,
B9,2.77 nM and 2.67 nM and 2.48 nM,,
B21,6.81 nM,,
B22,10.4 nM,5.8,5.8

# Target: T2, human IGF-1 receptor
# Test: cell-based or functional assay
# Remark: another data set of the same source
row,Binder,"EC50, phosphorylation (FIG. 18C) [nM]"
1,B23,316
2,B24,8.23
3,B25,83.1
4,B26,14.8
